The record followed here is patent US20230151068A1.

The target in assay [1] is biotinylated His-Avi-TEAD (194-411) (UniProt P28347). The experiment in a line: SPR (Biacore T100, 25 C), captured biotinylated TEAD, peptide as analyte, single cycle kinetics.
Assay [2] has the same target. The experiment in a line: SPR, single cycle kinetics, biotinylated TEAD captured on the chip, peptide injected at 0.044, 0.133, 0.4, 1.2, 3.6 nM.
The target is the same in assay [3]. The assay is described as follows: SSM screen, enrichment after two rounds of sorting.
Assay [4] shares this target. The assay is described as follows: SPR (Biacore T100, 25 C), captured biotinylated TEAD, peptide as analyte, steady-state.
Assay [5] shares this target. The experiment in a line: SPR (Biacore T100, 25 C), captured biotinylated TEAD, peptide as analyte, kinetics 1:1 binding.
For assay [6] the target is unchanged. The assay is described as follows: SPR, steady-state response against peptide concentration (M, log axis) with fitted curve.

In assay [1], GSPDEYIERAKECCKKQDIQCCLRIFDESGDPNVMLICLFCW (designed binder) [peptide of SEQ ID NO: 10] yielded a Kd of 0.372 nM, a koff of 0.00767 s⁻¹ and a kon of 2.06e+07 M⁻¹ s⁻¹. In assay [2], the Kd amounted to 0.372 nM.
Molecule GSPDEYHERAKECCKKGDIQCCLRYFEESGDPNVMLICLFCP (designed binder) [I05H variant of SEQ ID NO: 1] came in with an enrichment score in assay [3] of -2.99.
Same read-out and setting: the result for GSPDEYIEHAKECCKKGDIQCCLRYFEESGDPNVMLICLFCP (designed binder) [R07H variant of SEQ ID NO: 1] reads -0.32; that for GSPKEYIERAKECCKKGDIQCCLRYFEESGDPNVMLICLFCP (designed binder) [D02K variant of SEQ ID NO: 1], -1.07; that for GSPDEYIERAKHCCKKGDIQCCLRYFEESGDPNVMLICLFCP (designed binder) [E10H variant of SEQ ID NO: 1], -1.97.
Take GSPDEYIHRAKECCKKGDIQCCLRYFEESGDPNVMLICLFCP (designed binder) [E06H variant of SEQ ID NO: 1]: in assay [3], the enrichment score is -1.57.
With GSPDEKIERAKECCKKGDIQCCLRYFEESGDPNVMLICLFCP (designed binder) [Y04K variant of SEQ ID NO: 1], the enrichment score in assay [3] is -1.58.
Still for that read-out and setting: the result for GSPDEYIERAHECCKKGDIQCCLRYFEESGDPNVMLICLFCP (designed binder) [K09H variant of SEQ ID NO: 1] reads -1.5; that for GSPDKYIERAKECCKKGDIQCCLRYFEESGDPNVMLICLFCP (designed binder) [E03K variant of SEQ ID NO: 1], -0.5.
GSPDEYIERHKECCKKGDIQCCLRYFEESGDPNVMLICLFCP (designed binder) [A08H variant of SEQ ID NO: 1] showed an enrichment score in assay [3] of -7.27.
In assay [3], GSKDEYIERAKECCKKGDIQCCLRYFEESGDPNVMLICLFCP (designed binder) [P01K variant of SEQ ID NO: 1] displayed an enrichment score of -0.29.
GSPDEYIERAKECCKKQDIQCCLRIFDESKDPNVMLICLFCP (designed binder) [peptide of SEQ ID NO: 11] returned a Kd in assay [4] of 6.3 nM. In assay [5], the koff turned out to be 0.117 s⁻¹ and the kon was 3.1e+07 M⁻¹ s⁻¹. Moreover, the EC50 (read off the curve) in assay [6] turned out to be 6 nM.
On to GSPDEHIERAKECCKKGDIQCCLRYFEESGDPNVMLICLFCP (designed binder) [Y04H variant of SEQ ID NO: 1], for which, in assay [3], the enrichment score is -1.9.
In assay [3], GSPHEYIERAKECCKKGDIQCCLRYFEESGDPNVMLICLFCP (designed binder) [D02H variant of SEQ ID NO: 1] displayed an enrichment score of -1.05.
Molecule GSPDHYIERAKECCKKGDIQCCLRYFEESGDPNVMLICLFCP (designed binder) [E03H variant of SEQ ID NO: 1] registered an enrichment score in assay [3] of -0.31.
Turning to GSPDEYIERARRCCRRGDIQCCLRYFEESGDPNVMLICLFCP (designed binder) [peptide of SEQ ID NO: 8], in assay [4], the Kd came out at 39 nM. The molecule further had an EC50 (read off the curve) in assay [6] of 40 nM.
